Data published in article PMC4132019.

Target: CRM1-HA (chromosome region maintenance 1) (human (HeLa cell cDNA)) (UniProt O14980)
Experiment: pull-down

Sequence of UniProt O14980 (O14980 whole entry): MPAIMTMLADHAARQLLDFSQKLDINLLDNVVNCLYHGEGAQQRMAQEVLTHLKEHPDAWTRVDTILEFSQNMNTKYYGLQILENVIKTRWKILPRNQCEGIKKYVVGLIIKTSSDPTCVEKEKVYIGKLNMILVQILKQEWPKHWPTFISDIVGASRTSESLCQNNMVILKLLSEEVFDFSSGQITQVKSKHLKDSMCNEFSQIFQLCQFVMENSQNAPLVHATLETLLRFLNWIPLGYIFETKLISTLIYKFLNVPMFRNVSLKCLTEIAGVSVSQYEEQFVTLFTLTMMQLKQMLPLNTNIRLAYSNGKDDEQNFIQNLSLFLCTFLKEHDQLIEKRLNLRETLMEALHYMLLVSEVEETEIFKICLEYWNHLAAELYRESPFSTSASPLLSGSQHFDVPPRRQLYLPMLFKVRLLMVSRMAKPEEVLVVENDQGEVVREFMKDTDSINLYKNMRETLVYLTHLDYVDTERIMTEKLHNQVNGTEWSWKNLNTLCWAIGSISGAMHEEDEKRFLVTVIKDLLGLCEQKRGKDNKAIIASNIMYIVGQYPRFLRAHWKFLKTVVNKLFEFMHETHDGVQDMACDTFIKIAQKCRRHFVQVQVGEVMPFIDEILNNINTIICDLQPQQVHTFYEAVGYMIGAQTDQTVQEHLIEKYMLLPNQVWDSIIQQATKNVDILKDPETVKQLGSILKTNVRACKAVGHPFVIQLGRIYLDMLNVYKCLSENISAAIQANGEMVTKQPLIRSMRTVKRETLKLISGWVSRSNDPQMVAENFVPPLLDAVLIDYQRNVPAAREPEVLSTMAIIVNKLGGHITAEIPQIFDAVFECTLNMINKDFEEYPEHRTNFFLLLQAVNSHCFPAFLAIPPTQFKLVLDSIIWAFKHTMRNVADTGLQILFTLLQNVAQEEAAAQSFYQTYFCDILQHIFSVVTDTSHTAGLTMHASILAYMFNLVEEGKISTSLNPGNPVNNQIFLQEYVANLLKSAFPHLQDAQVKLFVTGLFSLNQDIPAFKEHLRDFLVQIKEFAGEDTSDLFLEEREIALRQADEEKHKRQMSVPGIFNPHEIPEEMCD

With “NP-FLAG (wild-type nucleoprotein of influenza A/WSN/33) (from UniProt P15682 1-498) (natural protein)” the CRM1 binding (%WT) was 100 % of WT.
